To fix the notation:
B1: GpH7-B3 variant T335_10E/GpL16-k0 (antibody, human IgG1, kappa)
heavy: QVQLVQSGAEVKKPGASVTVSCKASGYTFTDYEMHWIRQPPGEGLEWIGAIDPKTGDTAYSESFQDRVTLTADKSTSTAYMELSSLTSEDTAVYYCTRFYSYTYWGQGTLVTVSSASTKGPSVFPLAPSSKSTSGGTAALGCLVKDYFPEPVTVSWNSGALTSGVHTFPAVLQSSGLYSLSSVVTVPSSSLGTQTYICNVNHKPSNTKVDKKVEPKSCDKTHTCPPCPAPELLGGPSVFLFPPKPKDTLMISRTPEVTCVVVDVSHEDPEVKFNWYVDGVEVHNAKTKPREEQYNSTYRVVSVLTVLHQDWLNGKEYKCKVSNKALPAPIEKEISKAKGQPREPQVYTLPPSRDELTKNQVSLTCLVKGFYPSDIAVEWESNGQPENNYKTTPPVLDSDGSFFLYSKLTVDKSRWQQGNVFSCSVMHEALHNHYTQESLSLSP
light: DIVMTQSPLSLPVTPGEPASISCQASESLVHSNRNTYLHWYLQKPGQSPQLLIYKVSNRFSGVPDRFSGSGSGTDFTLKISRVEAEDVGVYYCSQNTHVPPTFGQGTKVEIERTVAAPSVFIFPPSDEQLKSGTASVVCLLNNFYPREAKVQWKVDNALQSGNSQESVTEQDSKDSTYSLSSTLTLSKADYEKHKVYACEVTHQGLSSPVTKSFNRGEC
notes: also called Ho Ab T335_10E
B2: GpH7-A5/GpH7-B3 variant K334_01G/GpL16-k0 (antibody, human IgG1, kappa)
heavy 1: not shown
heavy 2: not shown
light: B1 light
notes: also called He Ab K334_01G
B3: GpH7-A5/GpH7-B3 variant I332_13S/GpL16-k0 (antibody, human IgG1, kappa)
heavy 1: not shown
heavy 2: not shown
light: B1 light
notes: also called He Ab I332_13S
B4: GpH7-A5/GpH7-B3 variant E333_16H/GpL16-k0 (antibody, human IgG1, kappa)
heavy 1: not shown
heavy 2: not shown
light: B1 light
notes: also called He Ab E333_16H
B5: GpH7-A5/GpH7-B3 variant K326_03V/GpL16-k0 (antibody, human IgG1, kappa)
heavy 1: not shown
heavy 2: not shown
light: B1 light
notes: also called He Ab K326_03V
B6: GpH7-A5/GpH7-B3 variant A330_20W/GpL16-k0 (antibody, human IgG1, kappa)
heavy 1: not shown
heavy 2: not shown
light: B1 light
notes: also called He Ab A330_20W
B7: GpH7-A5/GpH7-B3 variant I332_01G/GpL16-k0 (antibody, human IgG1, kappa)
heavy 1: not shown
heavy 2: not shown
light: B1 light
notes: also called He Ab I332_01G
B8: GpH7-A5/GpH7-B3 variant K326_06M/GpL16-k0 (antibody, human IgG1, kappa)
heavy 1: not shown
heavy 2: not shown
light: B1 light
notes: also called He Ab K326_06M
B9: GpH7-A5/GpH7-B3 variant I336_18N/GpL16-k0 (antibody, human IgG1, kappa)
heavy 1: not shown
heavy 2: not shown
light: B1 light
notes: also called He Ab I336_18N
B10: GpH7-A5/GpH7-B3 variant I336_14T/GpL16-k0 (antibody, human IgG1, kappa)
heavy 1: not shown
heavy 2: not shown
light: B1 light
notes: also called He Ab I336_14T
B11: GpH7-A5/GpH7-B3 variant I332_19Q/GpL16-k0 (antibody, human IgG1, kappa)
heavy 1: not shown
heavy 2: not shown
light: B1 light
notes: also called He Ab I332_19Q
B12: GpH7-A5/GpH7-B3 variant I336_10E/GpL16-k0 (antibody, human IgG1, kappa)
heavy 1: not shown
heavy 2: not shown
light: B1 light
notes: also called He Ab I336_10E
B13: GpH7-A5/GpH7-B3 variant K326_19Q/GpL16-k0 (antibody, human IgG1, kappa)
heavy 1: not shown
heavy 2: not shown
light: B1 light
notes: also called He Ab K326_19Q
B14: GpH7-A5/GpH7-B3 variant K334_02A/GpL16-k0 (antibody, human IgG1, kappa)
heavy 1: not shown
heavy 2: not shown
light: B1 light
notes: also called He Ab K334_02A
B15: GpH7-A5/GpH7-B3 variant K326_14T/GpL16-k0 (antibody, human IgG1, kappa)
heavy 1: not shown
heavy 2: not shown
light: B1 light
notes: also called He Ab K326_14T
B16: GpH7-A5/GpH7-B3 variant I336_09D/GpL16-k0 (antibody, human IgG1, kappa)
heavy 1: not shown
heavy 2: not shown
light: B1 light
notes: also called He Ab I336_09D
B17: GpH7-A5/GpH7-B3 variant I332_15Y/GpL16-k0 (antibody, human IgG1, kappa)
heavy 1: not shown
heavy 2: not shown
light: B1 light
notes: also called He Ab I332_15Y
B18: GpH7-A5/GpH7-B3 variant I332_09D/GpL16-k0 (antibody, human IgG1, kappa)
heavy 1: not shown
heavy 2: not shown
light: B1 light
notes: also called He Ab I332_09D
B19: GpH7-A5/GpH7-B3 variant A330_04F/GpL16-k0 (antibody, human IgG1, kappa)
heavy 1: not shown
heavy 2: not shown
light: B1 light
notes: also called He Ab A330_04F
B20: GpH7-A5/GpH7-B3 variant I332_14T/GpL16-k0 (antibody, human IgG1, kappa)
heavy 1: not shown
heavy 2: not shown
light: B1 light
notes: also called He Ab I332_14T
B21: GpH7-A5/GpH7-B3 variant I332_02A/GpL16-k0 (antibody, human IgG1, kappa)
heavy 1: not shown
heavy 2: not shown
light: B1 light
notes: also called He Ab I332_02A
B22: GpH7-A5/GpH7-B3 variant K326_07I/GpL16-k0 (antibody, human IgG1, kappa)
heavy 1: not shown
heavy 2: not shown
light: B1 light
notes: also called He Ab K326_07I
B23: GpH7-A5/GpH7-B3 variant K334_03V/GpL16-k0 (antibody, human IgG1, kappa)
heavy 1: not shown
heavy 2: not shown
light: B1 light
notes: also called He Ab K334_03V
B24: GpH7-A5/GpH7-B3 variant K326_04F/GpL16-k0 (antibody, human IgG1, kappa)
heavy 1: not shown
heavy 2: not shown
light: B1 light
notes: also called He Ab K326_04F
B25: GpH7-A5/GpH7-B3 variant I336_13S/GpL16-k0 (antibody, human IgG1, kappa)
heavy 1: not shown
heavy 2: not shown
light: B1 light
notes: also called He Ab I336_13S
B26: GpH7-A5/GpH7-B3 variant K326_15Y/GpL16-k0 (antibody, human IgG1, kappa)
heavy 1: not shown
heavy 2: not shown
light: B1 light
notes: also called He Ab K326_15Y
B27: GpH7-A5/GpH7-B3 variant K334_04F/GpL16-k0 (antibody, human IgG1, kappa)
heavy 1: not shown
heavy 2: not shown
light: B1 light
notes: also called He Ab K334_04F
B28: GpH7-A5/GpH7-B3 variant I336_03V/GpL16-k0 (antibody, human IgG1, kappa)
heavy 1: not shown
heavy 2: not shown
light: B1 light
notes: also called He Ab I336_03V
B29: GpH7-A5/GpH7-B3 variant K326_10E/GpL16-k0 (antibody, human IgG1, kappa)
heavy 1: not shown
heavy 2: not shown
light: B1 light
notes: also called He Ab K326_10E
B30: GpH7-A5/GpH7-B3 variant K326_09D/GpL16-k0 (antibody, human IgG1, kappa)
heavy 1: not shown
heavy 2: not shown
light: B1 light
notes: also called He Ab K326_09D
B31: GpH7-A5/GpH7-B3 variant I336_02A/GpL16-k0 (antibody, human IgG1, kappa)
heavy 1: not shown
heavy 2: not shown
light: B1 light
notes: also called He Ab I336_02A
B32: GpH7-A5/GpH7-B3 variant I336_06M/GpL16-k0 (antibody, human IgG1, kappa)
heavy 1: not shown
heavy 2: not shown
light: B1 light
notes: also called He Ab I336_06M
B33: GpH7-A5/GpH7-B3 variant H268_10E/GpL16-k0 (antibody, human IgG1, kappa)
heavy 1: not shown
heavy 2: not shown
light: B1 light
notes: also called He Ab H268_10E
B34: GpH7-A5/GpH7-B3 variant K334_05P/GpL16-k0 (antibody, human IgG1, kappa)
heavy 1: not shown
heavy 2: not shown
light: B1 light
notes: also called He Ab K334_05P
B35: GpH7-A5/GpH7-B3 variant K334_07I/GpL16-k0 (antibody, human IgG1, kappa)
heavy 1: not shown
heavy 2: not shown
light: B1 light
notes: also called He Ab K334_07I
B36: GpH7-A5/GpH7-B3 variant A330_08L/GpL16-k0 (antibody, human IgG1, kappa)
heavy 1: not shown
heavy 2: not shown
light: B1 light
notes: also called He Ab A330_08L
B37: GpH7-A5/GpH7-B3 variant H268_09D/GpL16-k0 (antibody, human IgG1, kappa)
heavy 1: not shown
heavy 2: not shown
light: B1 light
notes: also called He Ab H268_09D
B38: GpH7-A5/GpH7-B3 variant K326_08L/GpL16-k0 (antibody, human IgG1, kappa)
heavy 1: not shown
heavy 2: not shown
light: B1 light
notes: also called He Ab K326_08L
B39: GpH7-A5/GpH7-B3 variant I332_10E/GpL16-k0 (antibody, human IgG1, kappa)
heavy 1: not shown
heavy 2: not shown
light: B1 light
notes: also called He Ab I332_10E
B40: GpH7-A5/GpH7-B3 variant H268_13S/GpL16-k0 (antibody, human IgG1, kappa)
heavy 1: not shown
heavy 2: not shown
light: B1 light
notes: also called He Ab H268_13S

The target in the assay is T1, FcγRIIIa extracellular domain with C-terminal His tag (human, UniProt P08637 17-208).
T1 construct: extracellular domain; also called FcgRIIIa; 3a; not shown: His tag attached to the C terminus
T1 sequence (P08637 17-208): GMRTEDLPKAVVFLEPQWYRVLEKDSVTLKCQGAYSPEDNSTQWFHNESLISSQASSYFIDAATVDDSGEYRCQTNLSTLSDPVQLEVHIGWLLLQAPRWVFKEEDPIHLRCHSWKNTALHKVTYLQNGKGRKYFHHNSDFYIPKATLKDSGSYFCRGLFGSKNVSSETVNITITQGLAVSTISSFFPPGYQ
The assay can be described thus: SPR Biacore, captured antibody, FcγR analyte, relative binding. The essentials:
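Antigen peptide is immobilized on CM5 by amine coupling or, biotinylated, on SA chips; test antibody is captured on it; each FcγR, diluted in HBS-EP+, flows over at 25° C; captured antibody is stripped with 10 mM glycine-HCl, pH 1.5.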
For the molecule B1, the Ho/Con_3a is 102 % of HoCon Ab GpH7-B3/GpL16-k0 (=100).
Take B2: the He/Con_3a is 121 % of HeCon Ab GpH7-A5/GpH7-B3/GpL16-k0 (=100).
On the same count and under the same terms, to B3 belongs 104 % of HeCon Ab GpH7-A5/GpH7-B3/GpL16-k0 (=100).
On the same count and under the same terms, to B4 belongs 103 % of HeCon Ab GpH7-A5/GpH7-B3/GpL16-k0 (=100); to B5, 122 % of HeCon Ab GpH7-A5/GpH7-B3/GpL16-k0 (=100).
Consider B6, for which the He/Con_3a is 104 % of HeCon Ab GpH7-A5/GpH7-B3/GpL16-k0 (=100).
With B7, the He/Con_3a was 111 % of HeCon Ab GpH7-A5/GpH7-B3/GpL16-k0 (=100).
Turning to B8, the He/Con_3a was 115 % of HeCon Ab GpH7-A5/GpH7-B3/GpL16-k0 (=100).
As for B9, the He/Con_3a was 104 % of HeCon Ab GpH7-A5/GpH7-B3/GpL16-k0 (=100).
Same read-out and setting: to B10 belongs 108 % of HeCon Ab GpH7-A5/GpH7-B3/GpL16-k0 (=100); to B11, 110 % of HeCon Ab GpH7-A5/GpH7-B3/GpL16-k0 (=100).
On the same count and under the same terms, as for B12, the figure is 119 % of HeCon Ab GpH7-A5/GpH7-B3/GpL16-k0 (=100).
As to B13, the He/Con_3a was 106 % of HeCon Ab GpH7-A5/GpH7-B3/GpL16-k0 (=100).
With B14, the He/Con_3a is 147 % of HeCon Ab GpH7-A5/GpH7-B3/GpL16-k0 (=100).
With B15, the He/Con_3a is 126 % of HeCon Ab GpH7-A5/GpH7-B3/GpL16-k0 (=100).
Still for that read-out and setting: to B16 belongs 106 % of HeCon Ab GpH7-A5/GpH7-B3/GpL16-k0 (=100); to B17, 101 % of HeCon Ab GpH7-A5/GpH7-B3/GpL16-k0 (=100).
B18: the He/Con_3a was 207 % of HeCon Ab GpH7-A5/GpH7-B3/GpL16-k0 (=100).
Regarding B19, the He/Con_3a is 147 % of HeCon Ab GpH7-A5/GpH7-B3/GpL16-k0 (=100).
B20: the He/Con_3a was 120 % of HeCon Ab GpH7-A5/GpH7-B3/GpL16-k0 (=100).
With B21, the He/Con_3a is 112 % of HeCon Ab GpH7-A5/GpH7-B3/GpL16-k0 (=100).
Still for that read-out and setting: to B22 belongs 139 % of HeCon Ab GpH7-A5/GpH7-B3/GpL16-k0 (=100); to B23, 150 % of HeCon Ab GpH7-A5/GpH7-B3/GpL16-k0 (=100); to B24, 103 % of HeCon Ab GpH7-A5/GpH7-B3/GpL16-k0 (=100).
B25: the He/Con_3a was 102 % of HeCon Ab GpH7-A5/GpH7-B3/GpL16-k0 (=100).
Take B26: the He/Con_3a was 112 % of HeCon Ab GpH7-A5/GpH7-B3/GpL16-k0 (=100).
On the same count and under the same terms, to B27 belongs 148 % of HeCon Ab GpH7-A5/GpH7-B3/GpL16-k0 (=100).
As to B28, the He/Con_3a is 112 % of HeCon Ab GpH7-A5/GpH7-B3/GpL16-k0 (=100).
B29: the He/Con_3a is 124 % of HeCon Ab GpH7-A5/GpH7-B3/GpL16-k0 (=100).
Turning to B30, the He/Con_3a is 134 % of HeCon Ab GpH7-A5/GpH7-B3/GpL16-k0 (=100).
As for B31, the He/Con_3a was 111 % of HeCon Ab GpH7-A5/GpH7-B3/GpL16-k0 (=100).
As for B32, the He/Con_3a was 109 % of HeCon Ab GpH7-A5/GpH7-B3/GpL16-k0 (=100).
Take B33: the He/Con_3a was 186 % of HeCon Ab GpH7-A5/GpH7-B3/GpL16-k0 (=100).
Consider B34, for which the He/Con_3a is 134 % of HeCon Ab GpH7-A5/GpH7-B3/GpL16-k0 (=100).
With B35, the He/Con_3a is 151 % of HeCon Ab GpH7-A5/GpH7-B3/GpL16-k0 (=100).
Take B36: the He/Con_3a was 124 % of HeCon Ab GpH7-A5/GpH7-B3/GpL16-k0 (=100).
In the case of B37, the He/Con_3a is 197 % of HeCon Ab GpH7-A5/GpH7-B3/GpL16-k0 (=100).
For the molecule B38, the He/Con_3a was 114 % of HeCon Ab GpH7-A5/GpH7-B3/GpL16-k0 (=100).
Regarding B39, the He/Con_3a was 233 % of HeCon Ab GpH7-A5/GpH7-B3/GpL16-k0 (=100).
On to B40, for which the He/Con_3a is 122 % of HeCon Ab GpH7-A5/GpH7-B3/GpL16-k0 (=100).

These data come from patent US20150344570A1 (published 2015).
